The source of these data is paper PMC3694950.

This test has as its target mitochondrial large-conductance Ca2+-regulated potassium channel (mitoBKCa channel) (human (endogenous in U-87 MG)) (UniProt Q12791).
Chain of UniProt Q12791 (Q12791 whole entry, looked up): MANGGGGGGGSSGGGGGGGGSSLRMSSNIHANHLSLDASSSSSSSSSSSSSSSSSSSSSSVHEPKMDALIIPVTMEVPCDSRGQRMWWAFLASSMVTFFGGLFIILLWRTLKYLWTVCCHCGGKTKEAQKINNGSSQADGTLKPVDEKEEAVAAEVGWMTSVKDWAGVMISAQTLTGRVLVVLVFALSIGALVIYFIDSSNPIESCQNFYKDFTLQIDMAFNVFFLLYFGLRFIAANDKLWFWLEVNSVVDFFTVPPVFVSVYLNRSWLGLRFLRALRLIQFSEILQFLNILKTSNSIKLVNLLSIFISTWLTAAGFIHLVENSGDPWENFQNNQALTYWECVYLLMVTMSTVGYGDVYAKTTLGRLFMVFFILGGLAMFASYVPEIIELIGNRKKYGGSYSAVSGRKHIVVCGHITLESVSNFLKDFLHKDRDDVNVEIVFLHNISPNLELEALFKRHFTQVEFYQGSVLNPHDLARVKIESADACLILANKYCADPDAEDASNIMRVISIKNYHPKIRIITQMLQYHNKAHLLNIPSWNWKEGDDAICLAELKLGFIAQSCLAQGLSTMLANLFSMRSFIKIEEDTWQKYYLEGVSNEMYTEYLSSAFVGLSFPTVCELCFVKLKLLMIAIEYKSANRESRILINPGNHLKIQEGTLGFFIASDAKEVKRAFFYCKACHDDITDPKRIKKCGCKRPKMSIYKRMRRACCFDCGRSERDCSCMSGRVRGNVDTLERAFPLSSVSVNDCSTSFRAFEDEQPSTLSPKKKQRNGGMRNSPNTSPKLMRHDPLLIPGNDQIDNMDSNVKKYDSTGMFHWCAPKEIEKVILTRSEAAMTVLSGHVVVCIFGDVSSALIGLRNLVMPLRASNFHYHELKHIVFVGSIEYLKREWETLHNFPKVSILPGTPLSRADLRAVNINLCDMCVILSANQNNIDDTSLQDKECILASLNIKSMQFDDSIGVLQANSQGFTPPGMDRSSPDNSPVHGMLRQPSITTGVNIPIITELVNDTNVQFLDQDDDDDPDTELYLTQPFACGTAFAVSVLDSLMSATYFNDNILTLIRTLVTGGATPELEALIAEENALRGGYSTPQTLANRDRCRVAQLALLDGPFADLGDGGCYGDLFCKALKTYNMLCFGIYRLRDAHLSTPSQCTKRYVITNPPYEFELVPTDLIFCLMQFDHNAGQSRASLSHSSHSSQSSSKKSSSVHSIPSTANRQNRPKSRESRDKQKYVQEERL

“iberiotoxin (from UniProt P24663 1-37) (peptide)”: the open probability (Po) of the mitoBKCa channel in patch-clamped mitoplasts (inside-out) after 100 nM iberiotoxin; control Po 0.95 was 0.15 Po.
